Reference: patent US20190315799

Tested on: SpyTag-CsgA

Substance	amylase activity	PTDH activity (OD 340 nm, absorbance of formed NADH)
amylase-SpyCatcher	amylase activity was observed throughout the experiment	–
PTDH-SpyCatcher	–	the thin cotton cloth exhibited almost exclusive specific-enzyme binding
